Measured values: patent publication US20100162415A1

Experiments:
Test in all cases: cell-based or functional assay
[1] = biological target: human VEGF-A (huVEGF165) (human) (UniProt P15692)
[2] = biological target: murine VEGF-A (muVEGF164) (mouse) (UniProt Q00731)
[3] = biological target: hum-X VEGF (mouse VEGF-A with 10 residues replaced by the human residues)

UniProt P15692, sequence (P15692 other isoform, or with tags, fused parts or gaps): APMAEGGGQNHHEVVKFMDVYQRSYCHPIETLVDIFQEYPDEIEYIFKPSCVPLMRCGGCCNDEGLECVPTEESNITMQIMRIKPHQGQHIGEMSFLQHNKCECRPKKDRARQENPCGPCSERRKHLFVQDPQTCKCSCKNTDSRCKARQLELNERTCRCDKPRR
UniProt Q00731, sequence (Q00731 other isoform, or with tags, fused parts or gaps): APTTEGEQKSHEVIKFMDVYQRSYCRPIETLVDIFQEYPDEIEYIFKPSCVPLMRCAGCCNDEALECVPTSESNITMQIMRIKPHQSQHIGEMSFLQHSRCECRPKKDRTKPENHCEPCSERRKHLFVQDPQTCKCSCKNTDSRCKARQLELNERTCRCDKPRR

B20-4.1 (antibody)
IC50, inhibition of VEGF-stimulated bovine retinal capillary endothelial cell proliferation [1]: 0.052 µg/mL | IC50, inhibition of VEGF-stimulated bovine retinal capillary endothelial cell proliferation [2]: 0.5 µg/mL | IC50, inhibition of VEGF-stimulated bovine retinal capillary endothelial cell proliferation [3]: 0.076 µg/mL

G6-31 (antibody)
IC50, inhibition of VEGF-stimulated bovine retinal capillary endothelial cell proliferation [3]: 0.0061 µg/mL

Y0317 (antibody)
IC50, inhibition of VEGF-stimulated bovine retinal capillary endothelial cell proliferation [1]: 0.00075 µg/mL | IC50, inhibition of VEGF-stimulated bovine retinal capillary endothelial cell proliferation [3]: 0.0027 µg/mL
